The RNAGym collection of RNA variant scans (doi:10.1093/nar/gkz1192)

B1: CPEB3 Ribozyme (parent)
chain: UAACAGGGGGCCACAGCAGAAGCGUUCACGUCGCAGCCCCUGUCAGAUUCUGGUGAAUCUGCGAAUUCUGCUGUAUAUCUC

Variants of: B1
Assay: self-cleavage, relative activity (ratio to wild type); higher = more cleavage; in vitro, sequencing
How it was run: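 For each CPEB3 ribozyme variant, relative activity is its cleaved/total read fraction divided by the unmutated ribozyme's. Barcoded error-prone PCR libraries were transcribed by T7 RNA polymerase (5 hours, 37°C) and held in DNase I for 15 min before an EDTA stop, with cleavage occurring throughout. Template-switching reverse transcription and Illumina sequencing were used to read the RNAs. A 5-read minimum applied, and results are the mean of three batches.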
U69A U76C showed a self-cleavage of 0.7.
With U69A U76G the self-cleavage was 0.7.
Variant U69A U78A has a self-cleavage of 0.92.
Variant U69A U78C has a self-cleavage of 0.75.
Work on U69A U78G yielded a self-cleavage of 0.39.
With U69A U80A the self-cleavage was 0.74.
In the case of U69A U80C, the self-cleavage is reported as 0.56.
Work on U69A U80G yielded a self-cleavage of 0.76.
U69C showed a self-cleavage of 0.59.
U69C A75G showed a self-cleavage of 0.5.
U69C A75U showed a self-cleavage of 0.44.
U69C A77C showed a self-cleavage of 0.54.
For U69C A77G, the self-cleavage was 0.67.
For U69C A77U, the self-cleavage was 0.77.
With U69C C71A the self-cleavage was 0.2.
Variant U69C C71G has a self-cleavage of 0.24.
U69C C79G showed a self-cleavage of 0.72.
In the case of U69C C79U, the self-cleavage is reported as 0.74.
U69C C81A showed a self-cleavage of 1.16.
U69C C81G gave a self-cleavage of 0.89.
Work on U69C C81U yielded a self-cleavage of 0.5.
U69C G70A showed a self-cleavage of 0.24.
In the case of U69C G70C, the self-cleavage is reported as 0.22.
In the case of U69C G70U, the self-cleavage is reported as 0.25.
Variant U69C G73A has a self-cleavage of 0.99.
U69C G73U showed a self-cleavage of 0.88.
U69C U72A gave a self-cleavage of 0.36.
In the case of U69C U72C, the self-cleavage is reported as 0.37.
U69C U72G gave a self-cleavage of 0.35.
In the case of U69C U74A, the self-cleavage is reported as 0.55.
For U69C U74C, the self-cleavage was 0.74.
U69C U74G showed a self-cleavage of 0.88.
Work on U69C U76A yielded a self-cleavage of 0.75.
U69C U76C showed a self-cleavage of 0.66.
U69C U76G gave a self-cleavage of 0.79.
U69C U78A gave a self-cleavage of 0.66.
For U69C U78C, the self-cleavage was 0.69.
For U69C U78G, the self-cleavage was 0.61.
In the case of U69C U80A, the self-cleavage is reported as 0.79.
Work on U69C U80C yielded a self-cleavage of 0.52.
U69C U80G gave a self-cleavage of 0.73.
U69G gave a self-cleavage of 0.74.
U69G A75U showed a self-cleavage of 0.78.
U69G A77G gave a self-cleavage of 0.78.
With U69G A77U the self-cleavage was 0.27.
For U69G C71A, the self-cleavage was 0.09.
For U69G C79U, the self-cleavage was 0.72.
Work on U69G C81A yielded a self-cleavage of 0.86.
U69G G73A showed a self-cleavage of 0.98.
Variant U69G U72A has a self-cleavage of 0.35.
Variant U69G U72C has a self-cleavage of 0.44.
U69G U74C gave a self-cleavage of 0.38.
In the case of U69G U74G, the self-cleavage is reported as 0.97.
In the case of U69G U76A, the self-cleavage is reported as 0.94.
For U69G U76C, the self-cleavage was 0.98.
In the case of U69G U78A, the self-cleavage is reported as 0.45.
With U69G U78C the self-cleavage was 0.71.
With U69G U80A the self-cleavage was 0.88.
With U69G U80C the self-cleavage was 0.82.
For U69G U80G, the self-cleavage was 0.61.
For G70A, the self-cleavage was 0.55.
With G70A A77G the self-cleavage was 0.53.
Variant G70A A77U has a self-cleavage of 1.07.
G70A C71G showed a self-cleavage of 0.23.
For G70A C71U, the self-cleavage was 0.41.
G70A U72A gave a self-cleavage of 0.33.
Work on G70A U72C yielded a self-cleavage of 0.42.
Work on G70A U74A yielded a self-cleavage of 0.73.
In the case of G70A U74C, the self-cleavage is reported as 0.69.
For G70A U76A, the self-cleavage was 0.8.
For G70A U76C, the self-cleavage was 0.75.
Work on G70A U78A yielded a self-cleavage of 0.43.
G70A U78C showed a self-cleavage of 0.8.
Work on G70A U78G yielded a self-cleavage of 0.46.
For G70A U80A, the self-cleavage was 1.
Work on G70A U80C yielded a self-cleavage of 0.45.
Variant G70C has a self-cleavage of 0.31.
Variant G70C A77G has a self-cleavage of 0.49.
Work on G70C C71U yielded a self-cleavage of 0.3.
With G70C U72C the self-cleavage was 0.31.
Variant G70C U76A has a self-cleavage of 0.11.
In the case of G70C U78A, the self-cleavage is reported as 0.17.
In the case of G70C U80C, the self-cleavage is reported as 0.22.
For G70U, the self-cleavage was 0.37.
G70U A77G showed a self-cleavage of 0.4.
With G70U U72C the self-cleavage was 0.42.
Work on G70U U72G yielded a self-cleavage of 0.35.
In the case of G70U U74C, the self-cleavage is reported as 0.26.
In the case of G70U U78A, the self-cleavage is reported as 0.48.
Variant G70U U80A has a self-cleavage of 0.67.
For C71A, the self-cleavage was 0.33.
Variant C71A A75U has a self-cleavage of 0.17.
With C71A A77U the self-cleavage was 0.36.
C71A U72A gave a self-cleavage of 0.22.
With C71A U72C the self-cleavage was 0.41.
In the case of C71A U78C, the self-cleavage is reported as 0.49.
C71A U78G showed a self-cleavage of 0.11.
C71A U80A showed a self-cleavage of 0.37.
With C71A U80C the self-cleavage was 0.63.
With C71G the self-cleavage was 0.42.
C71G A75G showed a self-cleavage of 0.62.
With C71G A77U the self-cleavage was 0.13.
C71G U72C gave a self-cleavage of 0.44.
Variant C71G U78C has a self-cleavage of 0.36.
C71G U80G showed a self-cleavage of 0.4.
In the case of C71U, the self-cleavage is reported as 0.68.
For C71U U72C, the self-cleavage was 1.02.
Work on C71U U72G yielded a self-cleavage of 0.62.
Work on C71U U76C yielded a self-cleavage of 0.84.
Work on C71U U78A yielded a self-cleavage of 0.65.
C71U U78C gave a self-cleavage of 0.77.
C71U U80A gave a self-cleavage of 0.72.
Variant C71U U80C has a self-cleavage of 1.23.
U72A gave a self-cleavage of 0.81.
In the case of U72A A75C, the self-cleavage is reported as 0.78.
U72A A75G gave a self-cleavage of 1.12.
For U72A A75U, the self-cleavage was 1.22.
With U72A A77G the self-cleavage was 1.02.
Variant U72A A77U has a self-cleavage of 0.89.
For U72A C79U, the self-cleavage was 0.68.
Variant U72A C81A has a self-cleavage of 1.26.
For U72A C81G, the self-cleavage was 1.24.
Variant U72A C81U has a self-cleavage of 1.11.
In the case of U72A G73A, the self-cleavage is reported as 1.28.
Work on U72A G73C yielded a self-cleavage of 1.25.
Variant U72A U74A has a self-cleavage of 1.34.
Variant U72A U74C has a self-cleavage of 1.16.
U72A U76A gave a self-cleavage of 0.72.
U72A U76C showed a self-cleavage of 0.97.
With U72A U76G the self-cleavage was 0.54.
In the case of U72A U78A, the self-cleavage is reported as 0.72.
Variant U72A U78C has a self-cleavage of 0.8.
For U72A U80A, the self-cleavage was 1.11.
Variant U72A U80C has a self-cleavage of 1.29.
With U72A U80G the self-cleavage was 0.99.
U72C showed a self-cleavage of 1.13.
Variant U72C A75G has a self-cleavage of 1.14.
With U72C A75U the self-cleavage was 1.25.
Variant U72C A77C has a self-cleavage of 1.07.
Variant U72C A77G has a self-cleavage of 1.18.
With U72C A77U the self-cleavage was 1.21.
U72C C79A gave a self-cleavage of 1.3.
For U72C C79G, the self-cleavage was 1.05.
U72C C79U gave a self-cleavage of 1.16.
U72C C81A showed a self-cleavage of 1.05.
Work on U72C C81U yielded a self-cleavage of 1.23.
Work on U72C G73A yielded a self-cleavage of 1.25.
In the case of U72C G73U, the self-cleavage is reported as 1.48.
Work on U72C U74A yielded a self-cleavage of 1.24.
With U72C U74C the self-cleavage was 1.22.
U72C U74G gave a self-cleavage of 1.25.
In the case of U72C U76A, the self-cleavage is reported as 1.23.
Work on U72C U76C yielded a self-cleavage of 1.16.
U72C U76G showed a self-cleavage of 1.23.
U72C U78A gave a self-cleavage of 1.2.
In the case of U72C U78C, the self-cleavage is reported as 1.15.
Work on U72C U78G yielded a self-cleavage of 1.16.
For U72C U80A, the self-cleavage was 1.24.
Work on U72C U80C yielded a self-cleavage of 1.24.
U72C U80G gave a self-cleavage of 1.23.
In the case of U72G, the self-cleavage is reported as 0.98.
With U72G A75G the self-cleavage was 1.2.
In the case of U72G A77G, the self-cleavage is reported as 1.
In the case of U72G A77U, the self-cleavage is reported as 0.71.
With U72G C79U the self-cleavage was 1.21.
Work on U72G G73A yielded a self-cleavage of 1.3.
In the case of U72G U74C, the self-cleavage is reported as 1.04.
